What was measured:
Test in all cases: two-hybrid; S. cerevisiae Y187 cotransformed with pGBT9 (GAL4 binding domain) and pACT2 (GAL4 activation domain) fusions; β-galactosidase liquid assay with CRPG as substrate; fragments and mutants given as percent of full-length or wild-type protein; empty vectors as negative controls
Conditions in all cases: partners not purified
[1] = biological target: T1, SHOX(1–211), yeast two-hybrid fusion (human, UniProt O15266 1-211)
T1 construct: SHOXa, human, residues 1-211; source: yeast two-hybrid fusion (S. cerevisiae Y187)
T1 sequence (O15266 1-211): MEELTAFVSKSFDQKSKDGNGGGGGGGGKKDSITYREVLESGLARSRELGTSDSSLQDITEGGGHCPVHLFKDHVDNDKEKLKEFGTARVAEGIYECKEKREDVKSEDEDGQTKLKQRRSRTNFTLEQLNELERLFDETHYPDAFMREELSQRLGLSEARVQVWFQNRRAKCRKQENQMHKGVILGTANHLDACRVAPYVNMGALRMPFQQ

[2] = biological target: T2, SHOX(117–274), yeast two-hybrid fusion (human, UniProt O15266 117-274)
T2 construct: SHOXa, human, residues 117-274; source: yeast two-hybrid fusion (S. cerevisiae Y187)
T2 sequence (O15266 117-274): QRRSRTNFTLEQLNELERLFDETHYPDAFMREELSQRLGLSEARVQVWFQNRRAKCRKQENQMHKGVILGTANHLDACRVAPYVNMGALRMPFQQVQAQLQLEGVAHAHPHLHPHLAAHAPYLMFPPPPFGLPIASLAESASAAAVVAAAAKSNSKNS

[3] = biological target: T3, SHOX(117–292), yeast two-hybrid fusion (human, UniProt O15266 117-292)
T3 construct: SHOXa, human, residues 117-292; source: yeast two-hybrid fusion (S. cerevisiae Y187)

[4] = biological target: T4, SHOX(178–292), yeast two-hybrid fusion (human, UniProt O15266 178-292)
T4 construct: SHOXa, human, residues 178-292; source: yeast two-hybrid fusion (S. cerevisiae Y187)
T4 sequence (looked up): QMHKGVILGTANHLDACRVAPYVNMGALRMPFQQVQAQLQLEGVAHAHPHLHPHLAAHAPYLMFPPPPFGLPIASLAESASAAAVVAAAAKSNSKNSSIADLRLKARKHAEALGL

β-galactosidase units as percent of full-length SHOX [1]: < 50 % of the wildtype | β-galactosidase units as percent of full-length SHOX [2]: < 50 % of the wildtype | β-galactosidase units as percent of full-length SHOX [3]: < 50 % of the wildtype | β-galactosidase units as percent of full-length SHOX [4]: < 50 % of the wildtype
B1: SHOX2a (called SHOX2 in the paper), full-length, yeast two-hybrid fusion (natural protein)
chain: not shown
notes: SHOX2a (short stature homeobox 2, isoform a), human; full-length cDNA NM_006884.3 made from IMAGE SHOX2 clone 4122010 by removing a 70 bp region; also called wild-type SHOX2; full-length SHOX2; source: yeast two-hybrid fusion (S. cerevisiae Y187)

— article PMC3885427, “NPPB and ACAN, Two Novel SHOX2 Transcription Targets Implicated in Skeletal Development” (PLoS ONE, 2014)
